Measurements as given in patent publication US20260242487A1.

B1: FPA144 (antibody, INN chains, looked up, V domains shown)
VH: QVQLVQSGAEVKKPGSSVKVSCKASGYIFTTYNVHWVRQAPGQGLEWIGSIYPDNGDTSYNQNFKGRATITADKSTSTAYMELSSLRSEDTAVYYCARGDFAYWGQGTLVTVSS
VL: DIQMTQSPSSLSASVGDRVTITCKASQGVSNDVAWYQQKPGKAPKLLIYSASYRYTGVPSRFSGSGSGTDFTFTISSLQPEDIATYYCQQHSTTPYTFGQGTKLEIK
B2: Aprutumab (antibody, INN chains, looked up, V domains shown)
VH: EVQLLESGGGLVQPGGSLRLSCAASGFTFSSYAMSWVRQAPGKGLEWVSAISGSGTSTYYADSVKGRFTISRDNSKNTLYLQMNSLRAEDTAVYYCARVRYNWNHGDWFDPWGQGTLVTVSS
VL: QSVLTQPPSASGTPGQRVTISCSGSSSNIGNNYVSWYQQLPGTAPKLLIYENYNRPAGVPDRFSGSKSGTSASLAISGLRSEDEADYYCSSWDDSLNYWVFGGGTKLTVL

What was measured:
[1] = target: hFGFR2b-Fc (Kactus, Catalog #FGR-HM2BB) (human) (UniProt P21802); assay: competition ELISA: inhibition of FGF7-his binding to coated hFGFR2b-Fc
Chain of hFGFR2b-Fc (Kactus, Catalog #FGR-HM2BB) (human) (P21802 other isoform, or with tags, fused parts or gaps): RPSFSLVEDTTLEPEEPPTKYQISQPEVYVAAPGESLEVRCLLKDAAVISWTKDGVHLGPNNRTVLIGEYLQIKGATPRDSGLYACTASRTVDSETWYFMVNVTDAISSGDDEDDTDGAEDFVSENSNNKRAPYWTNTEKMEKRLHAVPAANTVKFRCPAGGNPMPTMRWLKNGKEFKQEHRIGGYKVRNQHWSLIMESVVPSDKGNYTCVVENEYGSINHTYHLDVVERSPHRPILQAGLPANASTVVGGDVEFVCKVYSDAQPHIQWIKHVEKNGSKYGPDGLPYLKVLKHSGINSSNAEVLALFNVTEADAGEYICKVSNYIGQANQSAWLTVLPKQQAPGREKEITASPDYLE

[2] = target: hFGFR2b-Fc (Kactus, Catalog #FGR-HM2BB) (human) (UniProt P21802); assay: epitope binning ELISA: competing Ab FPA144 in solution with biotin-hFGFR2b-Fc; competitor (column, coated) FPA144
[3] = target: hFGFR2b-Fc (Kactus, Catalog #FGR-HM2BB) (human) (UniProt P21802); assay: epitope binning ELISA: competing Ab FPA144 in solution with biotin-hFGFR2b-Fc; competitor (column, coated) HC18
[4] = target: human FGFR2b expressed on cells (hFGFR2b-expressing CHOK1 cells; Ba/F3 cells expressing full-length human FGFR2b) (human) (UniProt P21802); assay: flow cytometry on CHOK1 cells expressing hFGFR2b, detection with APC anti-human IgG Fc
Chain of human FGFR2b expressed on cells (hFGFR2b-expressing CHOK1 cells; Ba/F3 cells expressing full-length human FGFR2b) (human) (P21802 other isoform, or with tags, fused parts or gaps): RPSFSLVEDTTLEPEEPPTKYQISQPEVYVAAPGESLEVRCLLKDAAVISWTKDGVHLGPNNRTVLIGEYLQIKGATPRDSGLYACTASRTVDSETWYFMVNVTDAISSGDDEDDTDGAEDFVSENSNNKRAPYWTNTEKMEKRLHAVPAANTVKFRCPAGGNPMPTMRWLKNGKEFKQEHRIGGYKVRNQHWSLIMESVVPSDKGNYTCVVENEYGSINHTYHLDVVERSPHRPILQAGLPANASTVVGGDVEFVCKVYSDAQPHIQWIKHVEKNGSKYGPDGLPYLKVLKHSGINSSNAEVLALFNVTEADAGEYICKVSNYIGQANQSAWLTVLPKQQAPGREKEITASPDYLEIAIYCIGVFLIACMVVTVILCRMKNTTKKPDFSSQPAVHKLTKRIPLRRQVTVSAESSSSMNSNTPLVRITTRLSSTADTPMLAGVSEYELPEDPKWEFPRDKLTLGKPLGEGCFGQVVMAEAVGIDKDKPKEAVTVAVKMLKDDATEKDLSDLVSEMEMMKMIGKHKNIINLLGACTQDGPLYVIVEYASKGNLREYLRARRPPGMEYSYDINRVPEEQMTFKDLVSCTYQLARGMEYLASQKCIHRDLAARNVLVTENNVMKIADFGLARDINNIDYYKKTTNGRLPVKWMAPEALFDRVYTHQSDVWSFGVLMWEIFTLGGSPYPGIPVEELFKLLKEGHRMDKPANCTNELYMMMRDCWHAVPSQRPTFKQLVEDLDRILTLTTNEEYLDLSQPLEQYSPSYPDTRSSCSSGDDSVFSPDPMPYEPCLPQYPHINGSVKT

[5] = target: hFGFR2b-Fc (Kactus, Catalog #FGR-HM2BB) (human) (UniProt P21802); assay: competition ELISA: inhibition of biotin-FGF10 binding to coated hFGFR2b-Fc
[6] = target: human FGFR2c expressed on CHOK1 cells (human) (UniProt P21802); assay: flow cytometry on CHOK1 cells expressing hFGFR2c, detection with APC anti-human IgG Fc
Chain of human FGFR2c expressed on CHOK1 cells (human) (P21802 22-821): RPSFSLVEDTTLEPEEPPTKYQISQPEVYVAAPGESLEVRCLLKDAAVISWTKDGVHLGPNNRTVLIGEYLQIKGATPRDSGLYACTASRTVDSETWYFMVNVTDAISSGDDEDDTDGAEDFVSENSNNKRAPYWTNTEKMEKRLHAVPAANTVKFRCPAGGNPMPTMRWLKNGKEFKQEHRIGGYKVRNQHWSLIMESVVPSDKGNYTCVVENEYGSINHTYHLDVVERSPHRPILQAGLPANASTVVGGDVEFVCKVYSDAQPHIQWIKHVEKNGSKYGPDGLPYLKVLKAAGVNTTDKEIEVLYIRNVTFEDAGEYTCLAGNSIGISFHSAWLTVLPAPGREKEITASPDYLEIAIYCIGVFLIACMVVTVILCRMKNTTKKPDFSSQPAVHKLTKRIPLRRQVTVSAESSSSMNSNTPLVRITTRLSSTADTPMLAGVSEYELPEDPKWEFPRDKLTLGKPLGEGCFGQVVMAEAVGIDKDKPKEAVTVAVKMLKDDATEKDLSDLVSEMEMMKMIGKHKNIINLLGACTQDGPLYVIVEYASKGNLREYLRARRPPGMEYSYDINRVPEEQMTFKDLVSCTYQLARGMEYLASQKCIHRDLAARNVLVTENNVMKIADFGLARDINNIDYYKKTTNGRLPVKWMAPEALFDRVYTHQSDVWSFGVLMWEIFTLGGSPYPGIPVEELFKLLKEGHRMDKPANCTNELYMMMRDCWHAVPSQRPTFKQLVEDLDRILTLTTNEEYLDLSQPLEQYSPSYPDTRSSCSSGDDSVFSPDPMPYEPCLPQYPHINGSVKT

Binder	IC50 [1] [nM]	Inhibition (%) [1] [%]	ODmin [1] [OD]	percent competition (epitope binning; value not given) [2] [%]	percent competition (epitope binning; value not given) [3] [%]	EC50 (read off the curve) [4] [nM]	IC50 [5] [nM]	Inhibition (%) [5] [%]	ODmin [5] [OD]	EC50 (read off the curve) [6] [nM]
B1	2.4	100	0.172	98	98	0.2	6.65	100	0.496	–
B2	–	–	–	–	–	–	–	–	–	1
